Article PMC10846113, “fosA11, a novel chromosomal-encoded fosfomycin resistance gene identified in Providencia rettgeri” (Microbiology Spectrum, 2023)

What was measured:
[1] = test system: C[C@@H]1O[C@@H]1P(=O)(O)O; test: glutathione consumption, monochlorobimane fluorescence, Michaelis-Menten fit; format: biochemical, Escherichia coli; conditions: 30 mM glutathione, 0.05 mM MnCl2, 0.1 M HEPES pH 8.0, 25 °C
Source text: glutathione consumption, monochlorobimane fluorescence, Michaelis-Menten fit on FosA3

[2] = test system: C[C@@H]1O[C@@H]1P(=O)(O)O; test: as above; format: biochemical, Providencia rettgeri; conditions: 30 mM glutathione, 0.05 mM MnCl2, 0.1 M HEPES pH 8.0, 25 °C
Source text: glutathione consumption, monochlorobimane fluorescence, Michaelis-Menten fit on FosA11

Substance	Km [1]	kcat [1]	kcat/Km [1]	Km [2]	kcat [2]	kcat/Km [2]
FosA3 (Escherichia coli)	12 ± 2 mM	112 ± 5.3 s⁻¹	9000 ± 1000 M⁻¹ s⁻¹	–	–	–
FosA11 (Providencia rettgeri)	–	–	–	18 ± 4 mM	56.1 ± 3.2 s⁻¹	2900 ± 500 M⁻¹ s⁻¹
